Molecular target: the molecule itself
Assay: SDS-polyacrylamide gel electrophoresis and blot; recombinant His-tagged Hbδ and Hbβ (HbAo) on a 4-20% SDS gel and blotted; non-reducing conditions in the legend, reducing conditions in the text

B1: recombinant Hbδ (natural protein)
chain: not shown
notes: hemoglobin subunit delta, recombinant, His-tagged (Origene); No catalogue number is printed; also called His-tagged recombinant Hbδ; source: bought: Origene
Q: Does B1 bind?
A: binds

— paper PMC11629678, “Hypoxia favors tumor growth in colorectal cancer in an integrin αDβ1/hemoglobin δ-dependent manner” (Life Science Alliance, 2024)
